Results as given in patent US20120214744A1 (L UNIVERSITE PARIS DESCARTES, published 2012).
“And” between values parts separate entries of the source, which are not always exact repeats. Identical values can stand only once.

B1: GST fused with the carboxy-terminal domain of ezrin (other)
chain: REEKHQKQLERQQLETEKKRRETVEREKEQMMREKEELMLRLQDYEEKTKKAERELSEQIQRALQLEEERKRAQEEAERLEADRMAALRAKEELERQAVDQIKSQEQLAAELAEYTAKIALLEEARRRKEDEVEEWQHRAKEAQDDLVKTKEELHLVMTAPPPPPPPVYEPVSYHVQESLQDEGAEPTGYSAELSSEGIRDDRNEEKRITEAEKNERVQRQLLTLSSELSQARDENKRTHNDIIHNENMRQGRDKYKTLRQIRQGNTKQRIDEFEAL
notes: also called GST-Ezrin-CT; C-terminus of ezrin; not shown: glutathione S-transferase (GST) tag

What was measured:
[1] = target: gD-tagged wild-type ErbB2 (human) (UniProt P04626); assay: cell-based or functional assay
endogenous EGFR = target: T1, endogenous EGFR (human, UniProt P00533 25-1210); assay: GST pull-down from HBMEC lysates
T1 construct: whole, on cells; Endogenous receptor of HBMECs, from lysates; also called endogenous EGF receptors
Method: (§1) Clarified lysates were incubated with GST fusion proteins (20-30 mg) bound to glutathione-Sepharose beads for 2 h at 4° C. Beads were washed three times with lysis buffer, and bound proteins were eluted in Laemmli sample buffer and separated by SDS-PAGE for analysis by western blotting.

[2] = target: T2, gD-tagged wild-type ErbB2 (human, UniProt P04626 23-1255); assay: GST pull-down from HBMEC lysates, anti-gD western blot
T2 construct: whole, on cells; Expressed in HBMECs (human endothelial cells); also called gD-ErbB2-WT; gD-ErbB2 WT
Method: as §1

Molecule	ErbB2-induced cell proliferation of HBMECs [1]	binding result (endogenous EGFR)	binding result [2]
VSV-g-tagged ezrin FERM domain (from UniProt P15311 1-295)	85 % reduction and 70 % reduction		
B1		no binding	no binding
